According to patent publication US20060094663A1 (VALORISATION RECHERCHE SOCIETE EN COMMANDITE, published 2006):
Each block holds one binder with its values, some of them ahead of it. Where no end group is shown, it is not given here. [ ]: non-standard residue; d: D form. dOrn = NCCC[C@@H](N)C(=O)O

How the values were obtained:
Assay in all cases: cell-based or functional assay
[1] = target: IL-1R/IL-1RacP receptor (cells or tissue whose species is not stated)
[2] = target: T1, IL-1R/IL-1RacP receptor on human cells (human, UniProt P14778 18-569; Q9NPH3 21-570)
T1 sequence (looked up) 1: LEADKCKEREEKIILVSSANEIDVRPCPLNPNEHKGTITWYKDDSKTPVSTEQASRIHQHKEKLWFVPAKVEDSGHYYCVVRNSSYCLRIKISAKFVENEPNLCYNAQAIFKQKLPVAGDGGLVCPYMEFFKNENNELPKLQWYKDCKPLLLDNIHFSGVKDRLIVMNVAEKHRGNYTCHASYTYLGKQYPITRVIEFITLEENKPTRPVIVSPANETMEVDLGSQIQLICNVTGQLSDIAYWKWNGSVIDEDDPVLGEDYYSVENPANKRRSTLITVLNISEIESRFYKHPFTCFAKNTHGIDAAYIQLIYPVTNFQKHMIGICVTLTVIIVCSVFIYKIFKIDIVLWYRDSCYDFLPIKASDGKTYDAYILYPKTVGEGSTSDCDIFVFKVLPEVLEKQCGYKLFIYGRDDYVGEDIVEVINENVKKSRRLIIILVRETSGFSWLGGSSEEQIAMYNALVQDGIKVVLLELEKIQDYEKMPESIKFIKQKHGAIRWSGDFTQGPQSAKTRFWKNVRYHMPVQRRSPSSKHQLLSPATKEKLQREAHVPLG
T1 sequence (looked up) 2: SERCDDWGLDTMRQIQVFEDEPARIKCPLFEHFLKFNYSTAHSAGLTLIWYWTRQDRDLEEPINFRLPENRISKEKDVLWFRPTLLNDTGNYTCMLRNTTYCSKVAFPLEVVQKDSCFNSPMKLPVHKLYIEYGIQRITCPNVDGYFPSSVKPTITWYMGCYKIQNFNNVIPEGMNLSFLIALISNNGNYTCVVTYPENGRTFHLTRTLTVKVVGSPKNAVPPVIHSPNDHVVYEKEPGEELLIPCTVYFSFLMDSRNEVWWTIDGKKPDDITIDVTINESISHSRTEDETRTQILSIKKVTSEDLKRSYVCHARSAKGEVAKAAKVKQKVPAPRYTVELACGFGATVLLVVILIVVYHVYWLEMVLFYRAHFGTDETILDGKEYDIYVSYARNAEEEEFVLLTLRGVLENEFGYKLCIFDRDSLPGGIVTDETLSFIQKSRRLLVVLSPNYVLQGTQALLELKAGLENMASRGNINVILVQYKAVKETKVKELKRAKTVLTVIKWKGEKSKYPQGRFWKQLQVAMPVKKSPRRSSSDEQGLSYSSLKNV

[3] = target: T2, IL-1R/IL-1RacP receptor on porcine cells and vessels (porcine (piglet), UniProt A0A5G2QSI4 18-572)
[4] = target: T2, IL-1R/IL-1RacP receptor on porcine …; remark: listed apart in the source
[5] = target: T1, IL-1R/IL-1RacP receptor on human cells; remark: listed apart in the source
[6] = target: T1, IL-1R/IL-1RacP receptor on human cells; remark: listed apart in the source

T2 sequence (A0A5G2QSI4 entry or part of it): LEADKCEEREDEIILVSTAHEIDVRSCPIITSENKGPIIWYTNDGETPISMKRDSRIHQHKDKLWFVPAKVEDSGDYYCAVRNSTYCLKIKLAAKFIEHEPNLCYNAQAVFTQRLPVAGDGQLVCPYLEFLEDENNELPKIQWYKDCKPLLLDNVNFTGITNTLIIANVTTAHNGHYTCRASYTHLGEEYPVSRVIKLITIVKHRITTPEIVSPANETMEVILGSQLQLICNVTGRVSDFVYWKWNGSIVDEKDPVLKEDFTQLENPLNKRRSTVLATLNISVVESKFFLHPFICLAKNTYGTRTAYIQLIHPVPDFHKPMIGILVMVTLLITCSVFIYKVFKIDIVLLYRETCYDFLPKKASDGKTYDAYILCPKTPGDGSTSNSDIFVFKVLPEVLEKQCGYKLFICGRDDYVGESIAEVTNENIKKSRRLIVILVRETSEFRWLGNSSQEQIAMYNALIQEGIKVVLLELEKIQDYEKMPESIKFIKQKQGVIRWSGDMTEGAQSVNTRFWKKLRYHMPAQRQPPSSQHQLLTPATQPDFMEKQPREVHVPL

Binder: [dR][dY][dT][dP][dE][dL][dA] [API-101.107]
- IC50 (FIG. 15; cell type not given) [1]: 0.0012 nM
- IC50, IL-1-induced PGE2 synthesis, human WI-38 cells [2]: 0.1 pM

Binder: [dR][dY][dT][dV][dE][dL][dA] [API-101.10]
- IC50, IL-1-induced PGE2 synthesis, endothelial cells [3]: 1.2 nM
- IC50, IL-1-induced vasodilation (ex vivo vasomotricity, protocol of Example 1) [3]: 10.8 nM
- fold potency against API-101, IL-1-induced vasodilation (ex vivo) [3]: 100 fold
- IC50, IL-1-induced PGE2 synthesis, WI-38 cells [2]: 0.2 nM
- percent of IL-1β-induced proliferation of WI-38 human lung fibroblasts abolished [2]: 100%

Binder: [dR][dW][dT][dP][dE][dL][dA] [API-101.116]
- Emax (%), IL-1β-induced PGE2 synthesis in endothelial cells (porcine) [4]: 45%
- IC50, IL-1β-induced PGE2 synthesis in endothelial cells (porcine) [4]: 0.013 nM
- Emax (%), IL-1β-induced proliferation in TF-1 cells (human) [5]: 75%
- IC50, IL-1β-induced proliferation in TF-1 cells (human) [5]: 0.5 nM

Binder: [dK][dY][dT][dP][dE][dL][dA] [API-101.114]
- Emax (%), IL-1β-induced PGE2 synthesis in endothelial cells (porcine) [4]: 50%
- IC50, IL-1β-induced PGE2 synthesis in endothelial cells (porcine) [4]: 0.002 nM

Binder: [dOrn][dY][dT][dP][dE][dL][dA] [API-101.115]
- Emax (%), IL-1β-induced proliferation in TF-1 cells (human) [5]: 100%
- IC50, IL-1β-induced proliferation in TF-1 cells (human) [5]: ~0.001 nM

Binder: [dY][dT][dV][dE][dL][dA] [API-101.11]
- percent of IL-1β-induced proliferation of WI-38 human lung fibroblasts abolished [2]: 100%

Binder: [dR][dY][dT][dV][dQ][dL][dA] [API-101.103]
- IC50, IL-1-induced PGE2 synthesis, human WI-38 cells [2]: 0.05 pM

Binder: [dR][dY][dT][dP][dE][dL] [API-101.113]
- Emax (%), IL-1β-induced PGE2 synthesis in endothelial cells (porcine) [4]: 80%
- IC50, IL-1β-induced PGE2 synthesis in endothelial cells (porcine) [4]: 0.0074 nM

Binder: [dA][dP][dR][dY][dT][dV][dE][dL][dA] [API-101]
- IC50, IL-1-induced PGE2 synthesis, endothelial cells [3]: 220 nM
- IC50, IL-1-induced PGE2 synthesis, microvascular endothelial cells [3]: 1000 nM
- IC50, IL-1β-induced vasodilation of piglet pial vessels (ex vivo) [3]: 182 nM
- IC50, IL-1-induced PGE2 synthesis, WI-38 cells [2]: 790 nM
- IC50, effect of IL-1β (10 ng/ml) on proliferation of A549 carcinoma cells, 3H-thymidine [2]: 1000 nM
- percent of IL-1β-induced proliferation of WI-38 human lung fibroblasts abolished [2]: 65%

The remaining lines, values ahead:

- Emax (%), IL-1β-induced TF-1 proliferation [6]: 50%
- IC50, IL-1β-induced TF-1 proliferation [6]: 400 nM
Binder: [dR][dY][dT][dP][dE][dV] [API-101.129]

- Emax (%), IL-1β-induced TF-1 proliferation [6]: < 30%
Binder: [dR][dF][dV][dP][dE][dL][dA] [API-101.127]

- Emax (%), IL-1β-induced PGE2 synthesis in endothelial cells (porcine) [4]: 100%
- IC50, IL-1β-induced PGE2 synthesis in endothelial cells (porcine) [4]: 0.01 nM
Binder: [dR][dY][dT][dP][dD][dL][dA] [API-101.117]

- Emax (%), IL-1β-induced TF-1 proliferation [6]: 100%
- IC50, IL-1β-induced TF-1 proliferation [6]: 3 nM
Binder: [dR][dW][dT][dP][dE][dL] [API-101.128]

- Emax (%), IL-1β-induced TF-1 proliferation [6]: 0%
Binder: [dOrn][dY][dT][dP][dE][dL] [API-101.126]

- Emax (%), IL-1β-induced TF-1 proliferation [6]: < 10%
Binder: [dK][dY][dT][dP][dE][dL] [API-101.133]
